Several values for one entry are separate records, joined by “and”; a condition that tells them apart may be missing. Equal values may be shown once.
Columns and labels:
[1] = target: LFA-1 disulfide mutant #2 (αL E1061C / β2 G676C) on 293T cells (UniProt P20701); test: flow cytometry (FACS), LFA-1 on transfected 293T cells
[2] = target: LFA-1 disulfide mutant #3 (αL K1062C / β2 G676C) on 293T cells (UniProt P20701); test: as above
[3] = target: LFA-1 disulfide mutant #4 (αL Q1063C / β2 G676C) on 293T cells (UniProt P20701); test: as above
Chain of LFA-1 disulfide mutant #4 (αL Q1063C / β2 G676C) on 293T cells (P20701 26-1170 Q1088C, chain 1 of 2): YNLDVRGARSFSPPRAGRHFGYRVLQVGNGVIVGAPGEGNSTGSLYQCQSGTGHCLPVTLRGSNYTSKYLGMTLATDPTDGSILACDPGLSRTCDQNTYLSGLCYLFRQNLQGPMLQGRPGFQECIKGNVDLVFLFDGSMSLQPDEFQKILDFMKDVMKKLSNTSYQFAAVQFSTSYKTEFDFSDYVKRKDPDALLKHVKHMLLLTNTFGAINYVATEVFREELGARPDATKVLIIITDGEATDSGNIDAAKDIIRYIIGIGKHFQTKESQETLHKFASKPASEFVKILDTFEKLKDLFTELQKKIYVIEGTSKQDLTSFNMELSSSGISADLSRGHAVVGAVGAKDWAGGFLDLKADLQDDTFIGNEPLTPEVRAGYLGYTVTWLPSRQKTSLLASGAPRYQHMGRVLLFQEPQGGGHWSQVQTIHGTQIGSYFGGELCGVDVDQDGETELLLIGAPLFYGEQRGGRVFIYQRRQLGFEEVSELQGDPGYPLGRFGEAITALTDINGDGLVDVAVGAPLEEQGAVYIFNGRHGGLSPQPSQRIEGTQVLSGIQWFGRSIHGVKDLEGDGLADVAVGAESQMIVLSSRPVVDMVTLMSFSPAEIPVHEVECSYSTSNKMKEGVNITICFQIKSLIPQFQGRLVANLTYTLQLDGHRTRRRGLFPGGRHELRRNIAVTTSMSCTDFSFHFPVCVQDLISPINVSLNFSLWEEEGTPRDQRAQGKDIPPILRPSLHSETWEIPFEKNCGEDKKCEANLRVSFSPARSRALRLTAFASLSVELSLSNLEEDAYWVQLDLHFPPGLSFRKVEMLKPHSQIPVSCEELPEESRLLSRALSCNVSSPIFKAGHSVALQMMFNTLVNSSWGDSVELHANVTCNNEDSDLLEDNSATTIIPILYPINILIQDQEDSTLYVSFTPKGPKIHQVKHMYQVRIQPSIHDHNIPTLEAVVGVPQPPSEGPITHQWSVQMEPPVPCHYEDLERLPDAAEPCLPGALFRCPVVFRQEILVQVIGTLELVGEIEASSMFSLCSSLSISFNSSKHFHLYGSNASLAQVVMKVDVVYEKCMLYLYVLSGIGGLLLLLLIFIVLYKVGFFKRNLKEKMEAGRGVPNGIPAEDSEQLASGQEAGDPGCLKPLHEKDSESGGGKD
Chain of LFA-1 disulfide mutant #4 (αL Q1063C / β2 G676C) on 293T cells (P05107 23-769 G698C, chain 2 of 2, further chain): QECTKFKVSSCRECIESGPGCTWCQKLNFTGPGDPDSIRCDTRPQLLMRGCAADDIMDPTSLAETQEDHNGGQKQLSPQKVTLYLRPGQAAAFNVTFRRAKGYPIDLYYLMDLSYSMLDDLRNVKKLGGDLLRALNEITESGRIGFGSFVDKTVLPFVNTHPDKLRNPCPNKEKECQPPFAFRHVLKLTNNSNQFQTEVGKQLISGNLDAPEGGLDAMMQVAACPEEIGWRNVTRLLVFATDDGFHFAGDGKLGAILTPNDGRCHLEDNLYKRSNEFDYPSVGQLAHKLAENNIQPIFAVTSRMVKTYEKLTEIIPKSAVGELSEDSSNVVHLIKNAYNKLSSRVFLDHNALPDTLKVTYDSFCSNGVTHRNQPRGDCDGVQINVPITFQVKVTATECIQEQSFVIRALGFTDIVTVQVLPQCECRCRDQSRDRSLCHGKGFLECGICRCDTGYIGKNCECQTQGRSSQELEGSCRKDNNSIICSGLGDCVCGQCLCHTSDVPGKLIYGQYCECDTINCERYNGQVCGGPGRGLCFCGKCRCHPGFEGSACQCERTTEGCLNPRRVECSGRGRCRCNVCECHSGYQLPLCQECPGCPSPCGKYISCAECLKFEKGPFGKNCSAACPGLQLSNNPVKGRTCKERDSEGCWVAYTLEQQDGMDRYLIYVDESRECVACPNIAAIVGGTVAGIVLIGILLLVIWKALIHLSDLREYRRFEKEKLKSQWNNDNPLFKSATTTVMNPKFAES

[4] = target: LFA-1 disulfide mutant #5 (αL K1062C / β2 P677C) on 293T cells (UniProt P20701); test: as above
Chain of LFA-1 disulfide mutant #5 (αL K1062C / β2 P677C) on 293T cells (P20701 26-1170 K1087C, chain 1 of 2): as the sequence (P20701 26-1170 Q1088C, chain 1 of 2) above, with K1062C, C1063Q counted along it
Chain of LFA-1 disulfide mutant #5 (αL K1062C / β2 P677C) on 293T cells (P05107 23-769 P699C, chain 2 of 2, further chain): as the sequence (P05107 23-769 G698C, chain 2 of 2, further chain) above, with C676G, P677C counted along it

[5] = target: LFA-1 disulfide mutant #6 (αL Q1063C / β2 P677C) on 293T cells (UniProt P20701); test: as above
Chain of LFA-1 disulfide mutant #6 (αL Q1063C / β2 P677C) on 293T cells (P20701 26-1170 Q1088C, chain 1 of 2): as the sequence (P20701 26-1170 Q1088C, chain 1 of 2) above
Chain of LFA-1 disulfide mutant #6 (αL Q1063C / β2 P677C) on 293T cells (P05107 23-769 P699C, chain 2 of 2, further chain): as the sequence (P05107 23-769 G698C, chain 2 of 2, further chain) above, with C676G, P677C counted along it

[6] = target: LFA-1 disulfide mutant #7 (αL M1064C / β2 P677C) on 293T cells (UniProt P20701); test: as above
Chain of LFA-1 disulfide mutant #7 (αL M1064C / β2 P677C) on 293T cells (P20701 26-1170 M1089C, chain 1 of 2): as the sequence (P20701 26-1170 Q1088C, chain 1 of 2) above, with C1063Q, M1064C counted along it
Chain of LFA-1 disulfide mutant #7 (αL M1064C / β2 P677C) on 293T cells (P05107 23-769 P699C, chain 2 of 2, further chain): as the sequence (P05107 23-769 G698C, chain 2 of 2, further chain) above, with C676G, P677C counted along it

[7] = target: LFA-1 disulfide mutant #8 (αL Q1063C / β2 N678C) on 293T cells (UniProt P20701); test: as above
Chain of LFA-1 disulfide mutant #8 (αL Q1063C / β2 N678C) on 293T cells (P20701 26-1170 Q1088C, chain 1 of 2): as the sequence (P20701 26-1170 Q1088C, chain 1 of 2) above
Chain of LFA-1 disulfide mutant #8 (αL Q1063C / β2 N678C) on 293T cells (P05107 23-769 N700C, chain 2 of 2, further chain): as the sequence (P05107 23-769 G698C, chain 2 of 2, further chain) above, with C676G, N678C counted along it

[8] = target: LFA-1 disulfide mutant #9 (αL M1064C / β2 N678C) on 293T cells (UniProt P20701); test: as above
Chain of LFA-1 disulfide mutant #9 (αL M1064C / β2 N678C) on 293T cells (P20701 26-1170 M1089C, chain 1 of 2): as the sequence (P20701 26-1170 Q1088C, chain 1 of 2) above, with C1063Q, M1064C counted along it
Chain of LFA-1 disulfide mutant #9 (αL M1064C / β2 N678C) on 293T cells (P05107 23-769 N700C, chain 2 of 2, further chain): as the sequence (P05107 23-769 G698C, chain 2 of 2, further chain) above, with C676G, N678C counted along it

[9] = target: wild-type LFA-1 (αLβ2) on 293T cells (UniProt P20701); test: as above
Chain of wild-type LFA-1 (αLβ2) on 293T cells (P20701 26-1170 limits assumed, chain 1 of 2): as the sequence (P20701 26-1170 Q1088C, chain 1 of 2) above, with C1063Q counted along it
Chain of wild-type LFA-1 (αLβ2) on 293T cells (P05107 23-769 limits assumed, chain 2 of 2, further chain): as the sequence (P05107 23-769 G698C, chain 2 of 2, further chain) above, with C676G counted along it

[10] = target: wild-type LFA-1 (αLβ2) on 293T cells (UniProt P20701); test: flow cytometry (FACS), LFA-1 on transfected 293T cells; the reference itself
[11] = target: LFA-1 disulfide mutant #2 (αL E1061C / β2 G676C) on 293T cells (UniProt P20701); test: flow cytometry (FACS), LFA-1 on transfected 293T cells; reference wild-type LFA-1
[12] = target: LFA-1 disulfide mutant #3 (αL K1062C / β2 G676C) on 293T cells (UniProt P20701); test: as above
[13] = target: LFA-1 disulfide mutant #4 (αL Q1063C / β2 G676C) on 293T cells (UniProt P20701); test: as above
[14] = target: LFA-1 disulfide mutant #5 (αL K1062C / β2 P677C) on 293T cells (UniProt P20701); test: as above
[15] = target: LFA-1 disulfide mutant #6 (αL Q1063C / β2 P677C) on 293T cells (UniProt P20701); test: as above
[16] = target: LFA-1 disulfide mutant #7 (αL M1064C / β2 P677C) on 293T cells (UniProt P20701); test: as above
[17] = target: LFA-1 disulfide mutant #8 (αL Q1063C / β2 N678C) on 293T cells (UniProt P20701); test: as above
[18] = target: LFA-1 disulfide mutant #9 (αL M1064C / β2 N678C) on 293T cells (UniProt P20701); test: as above

Chain of LFA-1 disulfide mutant #3 (αL K1062C / β2 G676C) on 293T cells (P20701 26-1170 K1087C, chain 1 of 2): as the sequence (P20701 26-1170 Q1088C, chain 1 of 2) above, with K1062C, C1063Q counted along it
Chain of LFA-1 disulfide mutant #3 (αL K1062C / β2 G676C) on 293T cells (P05107 23-769 G698C, chain 2 of 2, further chain): as the sequence (P05107 23-769 G698C, chain 2 of 2, further chain) above
Chain of LFA-1 disulfide mutant #2 (αL E1061C / β2 G676C) on 293T cells (P20701 26-1170 E1086C, chain 1 of 2): as the sequence (P20701 26-1170 Q1088C, chain 1 of 2) above, with E1061C, C1063Q counted along it
Chain of LFA-1 disulfide mutant #2 (αL E1061C / β2 G676C) on 293T cells (P05107 23-769 G698C, chain 2 of 2, further chain): as the sequence (P05107 23-769 G698C, chain 2 of 2, further chain) above

Mean (FACS mean fluorescence) [1] | Mean value normalized with expression level (MHM24) [1] | Mean (FACS mean fluorescence) [2] | Mean value normalized with expression level (MHM24) [2] | Mean (FACS mean fluorescence) [3] | Mean value normalized with expression level (MHM24) [3] | Mean (FACS mean fluorescence) [4] | Mean value normalized with expression level (MHM24) [4] | Mean (FACS mean fluorescence) [5] | Mean value normalized with expression level (MHM24) [5] | Mean (FACS mean fluorescence) [6] | Mean value normalized with expression level (MHM24) [6] | Mean (FACS mean fluorescence) [7] | Mean (FACS mean fluorescence) [8] | Mean value normalized with expression level (MHM24) [8] | Mean (FACS mean fluorescence) [9] | Mean value normalized with expression level (MHM24) [9] | normalized mean relative to wild-type (WT is set to 1.0) [10] | normalized mean relative to wild-type (WT is set to 1.0) [11] | normalized mean relative to wild-type (WT is set to 1.0) [12] | Substance | further results
8.27 and 9.59 | 0.016 and 0.044 | 11.1 and 15.8 | 0.039 and 0.093 | 12.1 and 12.2 | 0.06 and 0.074 | 10.3 and 9.36 | 0.036 and 0.04 | 10.9 and 14.4 | 0.037 and 0.08 | 10.8 and 11.8 | 0.033 and 0.053 | 8.54 and 12.2 | 10 and 12.1 | 0.023 and 0.047 | 12.2 and 13.9 | 0.035 and 0.055 | 1 | 0.46 and 0.81 | 1.12 and 1.69 | KIM127 (antibody) | normalized mean relative to wild-type (WT is set to 1.0) [13]: 1.69 and 1.35; normalized mean relative to wild-type (WT is set to 1.0) [14]: 1.03 and 0.73; normalized mean relative to wild-type (WT is set to 1.0) [15]: 1.06 and 1.47; normalized mean relative to wild-type (WT is set to 1.0) [16]: 0.95 and 0.96; normalized mean relative to wild-type (WT is set to 1.0) [17]: 0.61 and 1.49; normalized mean relative to wild-type (WT is set to 1.0) [18]: 0.66 and 0.85
97.4 | – | 117 | – | 95.9 | – | 102 | – | 117 | – | 126 | – | 88.5 | 147 | – | – | – | – | – | – | MHM24 (antibody) | –
– | – | – | – | – | – | – | – | – | – | – | – | – | 4.06 | – | 5.96 | – | – | – | – | X63 (antibody) | –
35.8 | 0.33 | 57.4 | 0.46 | 47.8 | 0.46 | 43.5 | 0.39 | 52.3 | 0.42 | 53 | 0.39 | 38.6 | 57.1 | 0.36 | 66.3 | 0.39 | 1 | 0.83 | 1.17 | m24 (antibody) | Mean value normalized with expression level (MHM24) [7]: 0.4; normalized mean relative to wild-type (WT is set to 1.0) [13]: 1.18; normalized mean relative to wild-type (WT is set to 1.0) [14]: 0.99; normalized mean relative to wild-type (WT is set to 1.0) [15]: 1.06; normalized mean relative to wild-type (WT is set to 1.0) [16]: 0.99; normalized mean relative to wild-type (WT is set to 1.0) [17]: 1; normalized mean relative to wild-type (WT is set to 1.0) [18]: 0.92

— patent US20160084825A1
